Measured values published in article PMC3470550.

Target: Cdk2/cyclin A complex (Cdk2 phosphorylated at threonine 160 with truncated cyclin A) (human) (UniProt P24941)

- IC50 of inhibition of Cdk2/cyclin A kinase activity (data not shown; 25% residual kinase activity even at peptide concentrations as high as 17 µM): 125 nM
Substance: peptide corresponding to the Cdk binding domain of p27
